Experimental data as given in patent US9271946B2, “Use of a RAR antagonist or inverse agonist for the treatment of chemotherapy and/or radiation therapy side effects” (IO Therapeutics, Inc., priority 2006, dated 2016).

Tests used:
[1] = test system: CPM-induced neutropenic male BDF1 mice; assay: mono-therapy and combination therapy on neutrophil recovery in CPM-induced neutropenic mice (Example 4); format: in vivo, mouse; settings: monotherapy; CPM 150 mg/kg Day 0; VTP 194310 1 or 3 mg/kg/day oral Days −1 to 1; PEG-G-CSF 1 or 10 μg/kg s.c. Day 2
Description: VTP 194310 DMSO stock solution was made by weighing out VTP 194310 and dissolved in DMSO (25 mg/1.33 ml DMSO). This stock solution was then mixed with Vehicle (39.2 ml Corn Oil+0.8 ml DMSO).
The 3.0 mg/kg VTP194310 solution was made by mixing 39.2 ml Corn Oil+0.8 ml VTP 194310 DMSO Stock.
The 1.0 mg/kg VTP194310 solution was made by diluting the VTP194310 DMSO Stock 1:3 with DMSO (e.g. 1 ml DMSO+0.5 ml 4310 Stock), and then combining 39.2 ml Corn Oil+0.8 ml of the diluted VTP194310 Stock.
The 1 and 10 μg/kg PEG-G-CSF solutions were made by diluting 6 mg/ml stock with PBS.
Male BDF1 mice (C57Bl×DBA2), 7-8 weeks old, DOB: 1 Jun. 2006) were used in this experiment.
35 μl of blood (via the submandibular vein) were collected according to the scheduled time points or until the full recovery of blood cells and platelets. The blood samples were analyzed after 1:5 dilution with PBS saline containing 2% BSA (Fraction V) and 0.2 mM EDTA on the Hematology Analyzer Cell-DYN 3700 (Abbott Diagnostics).
Each group of mice were treated with vehicle, VTP 194310 at 3 mg/kg, PEG-G-CSF at 1 or 10 μg/kg, and CPM at 150 mg/kg. The mean numbers of total white blood cells (WBC), neutrophils, lymphocytes, red blood cells (RBC) and platelets and standard error (SE) for data obtained for each treated group are shown in FIG. 4. […] Combination treatment with VTP 194310 and PEG-G-CSF further increased recovery.

[2] = test system: CPM-induced leukopenic male BDF1 mice; assay: cyclophosphamide-induced mouse model of leukopenia, blood cell recovery (Example 1); format: in vivo; settings: 10 μg/kg s.c. at day 2
Description: Mice purchased from Charles River Laboratories (Wilmington, Mass.) were housed individually in micro-isolater cages in a 12-hour light/dark cycle. They were housed under pathogen-free conditions, and received a normal standard diet and water ad libitum. They were acclimated for one week at the Association for Assessment and Accreditation of Laboratory Animal Care (AAALAC) accredited animal facility (Allergan Inc., Irvine, Calif.) prior to experiments. Study designs were approved by the Institutional Animal Care and Use Committee. Body weights were monitored throughout each study. Weight of the mice was in the range of 22-27 g at the day of treatment initiation. The mice were healthy, not previously used in other experimental procedures.
Leukopenia was induced in male BDF1 mice (C57Bl×DBA2, 7.5-12 weeks) by an intra-peritoneal (i.p.) injection of 200 mg/kg Cyclophosphamide (CPM, Sigma-Aldrich, Saint Louis, Mo.) in 0.2 ml saline. The effect of VTP 194310 on leukocyte recovery was evaluated by oral gavage of animals with 1 mg/kg of VTP 194310 as indicated in the results section. VTP 194310 (dissolved in DMSO) was diluted through peanut oil as the vehicle (dosed at 5 ml/kg). Control mice were given DMSO and vehicle alone. As a positive control, granulocytopoiesis was stimulated in CPM-treated mice by a single sub-cutaneous injection of 10 μg/kg pegylated recombinant methionyl human granulocyte colony-stimulating factor (PEG-r-metHuG-CSF) (Neulasta, Pegfilgrastim; Amgen, Thousand Oaks, Calif.) on day 2. Three separate experiments were performed.
Peripheral blood (60 μl) was collected under anaesthesia from the retroorbital sinus of the mice with heparinized capillary tubes and transferred to EDTA-coated microtainer tubes (Becton Dickinson, Franklin Lakes, N.J.). White cell, neutrophil, and lymphocyte counts were obtained for at least three mice per group by diluting the blood 1:4 with PBS containing 5% bovine serum albumin (Fraction V; Sigma, Saint Louis, Mo.), and by using an Advia 120 Hematology System (Bayer HealthCare Diagnostics Division, Tarrytown, N.Y.).

[3] = test system: 5-FU-induced neutropenic male BDF1 mice; assay: monotherapy and combination therapy on neutrophil recovery in 5-FU-induced neutropenic mice (Example 5); format: in vivo, mouse; settings: monotherapy; 5-FU 150 mg/kg i.v. Day 0; VTP 194310 3 mg/kg/day oral Days 2 to 4; PEG-G-CSF 10 μg/kg s.c. Day 5, 6, or 7
Description: VTP194310 DMSO Stock solution was made by weighing out VTP194310 and dissolving it in DMSO (25 mg/1.33 ml DMSO).
The Vehicle solution was made by mixing 39.2 ml Corn Oil+0.8 ml DMSO.
The 3.0 mg/kg VTP194310 solution was made by mixing 39.2 ml Corn Oil+0.8 ml VTP 194310 DMSO Stock solution.
The 150 mg/kg 5-FU solution was made by weighing out 187.5 mg 5-FU and mixing it with 10 g saline.
The 10 μg/kg PEG-G-CSF solution was made by diluting 6 mg/ml stock with PBS.
Male BDF1 mice (C57Bl×DBA2), 9 weeks old, DOB: 26 Jun. 2006) were used in this experiment.
Each group of mice were treated with 150 mg/kg 5-FU intravenously on Day 0, vehicle or VTP194310 orally by gavage at 3 mg/kg/day on Days 2 to 4, and/or subcutaneously with PEG-G-CSF at 10 μg/kg on Days 5, 6, or 7 according to the regimens listed in the table. The mean numbers of total white blood cells (WBC), neutrophils, lymphocytes, red blood cells (RBC) and platelets and standard error (SE) of data obtained for each treated group are shown in FIG. 6.

B1: PEG-G-CSF: pegylated recombinant methionyl human granulocyte colony-stimulating factor (Neulasta, Pegfilgrastim; Amgen) (protein, chains of the INN, looked up)
chain: TPLGPASSLPQSFLLKCLEQVRKIQGDGAALQEKLCATYKLCHPEELVLLGHSLGIPWAPLSSCPSQALQLAGCLSQLHSGLFLYQGLLQALEGISPELGPTLDTLQLDVADFATTIWQQMEELGMAPALQPTQGAMPAFASAFQRRAGGVLVASHLQSFLEVSYRVLRHLAQP
modifications: N-terminal Met; PEG
neutrophil recovery relative to control [1]: enhanced neutrophil recovery | blood neutrophil level at day 8 [2]: declined by day 8 to numbers that were observed in the control group | day of peak blood neutrophil level [2]: 7 days | number of blood neutrophils [2]: sharp rise | recovery of neutrophils relative to control [3]: little effect
